Literature values in patent publication US10906951B2, “Modified natural killer cells and natural killer cell lines having increased cytotoxicity” (ONK THERAPEUTICS LIMITED, priority 2015, dated 2021).
Positions count from the first letter of the chain named. Names and notes keep the numbering of the source.

B1: R149M: TRAIL DR4 variant, WO 2009/066174 (protein, UniProt P50591 1-281, looked up, variant R149M)
Tumor necrosis factor ligand …: MAMMEVQGGPSLGQTCVLIVIFTVLLQSLCVAVTYVYFTNELKQMQDKYSKSGIACFLKEDDSYWDPNDEESMNSPCWQVKWQLRQLVRKMILRTSEETISTVQEKQQNISPLVRERGPQRVAAHITGTRGRSNTLSSPNSKNEKALGMKINSWESSRSGHSFLSNLHLRNGELVIHEKGFYYIYSQTYFRFQEEIKENTKNDKQMVQYIYKYTSYPDPILLMKSARNSCWSKDAEYGLYSIYQGGIFELKENDRIFVSVTNEHLIDMDHEASFFGAFLVG
B2: D218H: TRAIL DR4 variant, WO 2009/066174 (protein, UniProt P50591 1-281, looked up, variant D218H)
Tumor necrosis factor ligand …: B1 Tumor necrosis factor ligand … with M149R, D218H
B3: K251Q: TRAIL DR4 variant, WO 2009/066174 (protein, UniProt P50591 1-281, looked up, variant K251Q)
Tumor necrosis factor ligand …: B1 Tumor necrosis factor ligand … with M149R, K251Q
B4: G131R/N199R/K201H: TRAIL DR4 variant, WO 2009/066174 (protein, UniProt P50591 1-281, looked up, variant G131R N199R K201H)
Tumor necrosis factor ligand …: B1 Tumor necrosis factor ligand … with G131R, M149R, N199R, K201H
B5: K204L: TRAIL DR4 variant, WO 2009/066174 (protein, UniProt P50591 1-281, looked up, variant K204L)
Tumor necrosis factor ligand …: B1 Tumor necrosis factor ligand … with M149R, K204L
B6: N199R: TRAIL DR4 variant, WO 2009/066174 (protein, UniProt P50591 1-281, looked up, variant N199R)
Tumor necrosis factor ligand …: B1 Tumor necrosis factor ligand … with M149R, N199R
B7: S215D: TRAIL DR4 variant, WO 2009/066174 (protein, UniProt P50591 1-281, looked up, variant S215D)
Tumor necrosis factor ligand …: B1 Tumor necrosis factor ligand … with M149R, S215D
B8: S215H: TRAIL DR4 variant, WO 2009/066174 (protein, UniProt P50591 1-281, looked up, variant S215H)
Tumor necrosis factor ligand …: B1 Tumor necrosis factor ligand … with M149R, S215H
B9: Y189Q/R191K/Q193R/H264R/I266L/D267Q: TRAIL DR4 variant, MacFarlane 2005 (protein, UniProt P50591 1-281, looked up, variant Y189Q R191K Q193R H264R I266L D267Q)
Tumor necrosis factor ligand …: B1 Tumor necrosis factor ligand … with M149R, Y189Q, R191K, Q193R, H264R, I266L, D267Q
B10: R149K: TRAIL DR4 variant, WO 2009/066174 (protein, UniProt P50591 1-281, looked up, variant R149K)
Tumor necrosis factor ligand …: B1 Tumor necrosis factor ligand … with M149K
B11: S215E: TRAIL DR4 variant, WO 2009/066174 (protein, UniProt P50591 1-281, looked up, variant S215E)
Tumor necrosis factor ligand …: B1 Tumor necrosis factor ligand … with M149R, S215E
B12: K201H: TRAIL DR4 variant, WO 2009/066174 (protein, UniProt P50591 1-281, looked up, variant K201H)
Tumor necrosis factor ligand …: B1 Tumor necrosis factor ligand … with M149R, K201H
B13: R149N: TRAIL DR4 variant, WO 2009/066174 (protein, UniProt P50591 1-281, looked up, variant R149N)
Tumor necrosis factor ligand …: B1 Tumor necrosis factor ligand … with M149N
B14: G131R/R149I/S159R/S215D: 4C9, a DR4-specific TRAIL variant; DNA sequence SEQ ID NO: 14 (protein, listed as Homo sapiens)
chain: B1 Tumor necrosis factor ligand … with G131R, M149I, S159R, S215D
B15: R149I: TRAIL DR4 variant, WO 2009/066174 (protein, UniProt P50591 1-281, looked up, variant R149I)
Tumor necrosis factor ligand …: B1 Tumor necrosis factor ligand … with M149I
B16: S159R: TRAIL DR4 variant, WO 2009/066174 (protein, UniProt P50591 1-281, looked up, variant S159R)
Tumor necrosis factor ligand …: B1 Tumor necrosis factor ligand … with M149R, S159R
B17: G131R/N199R/K201H/R149I/S159R/S215D: TRAIL DR4 variant, WO 2009/066174 (protein, UniProt P50591 1-281, looked up, variant G131R N199R K201H R149I S159R S215D)
Tumor necrosis factor ligand …: B1 Tumor necrosis factor ligand … with G131R, M149I, S159R, N199R, K201H, S215D
B18: K204Y: TRAIL DR4 variant, WO 2009/066174 (protein, UniProt P50591 1-281, looked up, variant K204Y)
Tumor necrosis factor ligand …: B1 Tumor necrosis factor ligand … with M149R, K204Y
B19: K204D: TRAIL DR4 variant, WO 2009/066174 (protein, UniProt P50591 1-281, looked up, variant K204D)
Tumor necrosis factor ligand …: B1 Tumor necrosis factor ligand … with M149R, K204D
B20: Q193H: TRAIL DR4 variant, WO 2009/066174 (protein, UniProt P50591 1-281, looked up, variant Q193H)
Tumor necrosis factor ligand …: B1 Tumor necrosis factor ligand … with M149R, Q193H
B21: K251D: TRAIL DR4 variant, WO 2009/066174 (protein, UniProt P50591 1-281, looked up, variant K251D)
Tumor necrosis factor ligand …: B1 Tumor necrosis factor ligand … with M149R, K251D
B22: S215K: TRAIL DR4 variant, WO 2009/066174 (protein, UniProt P50591 1-281, looked up, variant S215K)
Tumor necrosis factor ligand …: B1 Tumor necrosis factor ligand … with M149R, S215K
B23: K201R: TRAIL DR4 variant, WO 2009/066174 (protein, UniProt P50591 1-281, looked up, variant K201R)
Tumor necrosis factor ligand …: B1 Tumor necrosis factor ligand … with M149R, K201R
B24: G131R/D218H: TRAIL DR4 variant, WO 2009/066174 (protein, UniProt P50591 1-281, looked up, variant G131R D218H)
Tumor necrosis factor ligand …: B1 Tumor necrosis factor ligand … with G131R, M149R, D218H
B25: G131K: TRAIL DR4 variant, WO 2009/066174 (protein, UniProt P50591 1-281, looked up, variant G131K)
Tumor necrosis factor ligand …: B1 Tumor necrosis factor ligand … with G131K, M149R
B26: N199H/K201R: TRAIL DR4 variant, WO 2009/066174 (protein, UniProt P50591 1-281, looked up, variant N199H K201R)
Tumor necrosis factor ligand …: B1 Tumor necrosis factor ligand … with M149R, N199H, K201R
B27: K212R: TRAIL DR4 variant, WO 2009/066174 (protein, UniProt P50591 1-281, looked up, variant K212R)
Tumor necrosis factor ligand …: B1 Tumor necrosis factor ligand … with M149R, K212R
B28: K251E: TRAIL DR4 variant, WO 2009/066174 (protein, UniProt P50591 1-281, looked up, variant K251E)
Tumor necrosis factor ligand …: B1 Tumor necrosis factor ligand … with M149R, K251E
B29: N199R/K201H: TRAIL DR4 variant, WO 2009/066174 (protein, UniProt P50591 1-281, looked up, variant N199R K201H)
Tumor necrosis factor ligand …: B1 Tumor necrosis factor ligand … with M149R, N199R, K201H
B30: G131R: TRAIL DR4 variant, WO 2009/066174 (protein, UniProt P50591 1-281, looked up, variant G131R)
Tumor necrosis factor ligand …: B1 Tumor necrosis factor ligand … with G131R, M149R
B31: K204E: TRAIL DR4 variant, WO 2009/066174 (protein, UniProt P50591 1-281, looked up, variant K204E)
Tumor necrosis factor ligand …: B1 Tumor necrosis factor ligand … with M149R, K204E
B32: D269H: TRAIL variant, Van der Sloot 2006 (protein, UniProt P50591 1-281, looked up, variant D269H)
Tumor necrosis factor ligand …: B1 Tumor necrosis factor ligand … with M149R, D269H
B33: E195R: TRAIL variant, Van der Sloot 2006 (protein, UniProt P50591 1-281, looked up, variant E195R)
Tumor necrosis factor ligand …: B1 Tumor necrosis factor ligand … with M149R, E195R
B34: N199V: TRAIL variant, MacFarlane 2005 (protein, UniProt P50591 1-281, looked up, variant N199V)
Tumor necrosis factor ligand …: B1 Tumor necrosis factor ligand … with M149R, N199V
B35: T214R/E195R: TRAIL variant, Van der Sloot 2006 (protein, UniProt P50591 1-281, looked up, variant T214R E195R)
Tumor necrosis factor ligand …: B1 Tumor necrosis factor ligand … with M149R, E195R, T214R
B36: T214R/D269H: TRAIL variant, Van der Sloot 2006 (protein, UniProt P50591 1-281, looked up, variant T214R D269H)
Tumor necrosis factor ligand …: B1 Tumor necrosis factor ligand … with M149R, T214R, D269H
B37: T214R: TRAIL variant, Van der Sloot 2006 (protein, UniProt P50591 1-281, looked up, variant T214R)
Tumor necrosis factor ligand …: B1 Tumor necrosis factor ligand … with M149R, T214R
B38: Y189A/Q193S/N199V/K201R/Y213W/S215D: TRAIL variant, MacFarlane 2005 (protein, UniProt P50591 1-281, looked up, variant Y189A Q193S N199V K201R Y213W S215D)
Tumor necrosis factor ligand …: B1 Tumor necrosis factor ligand … with M149R, Y189A, Q193S, N199V, K201R, Y213W, S215D

Molecular target: DR4 (Homo sapiens, UniProt O00220)
Conditions: in words; known from WO 2009/066174, MacFarlane 2005; cited from earlier work

Question: For B1, which “affinity for DR4” value is on record?
Answer: increased affinity for DR4

Question: For B2, which “affinity for DR4” value is on record?
Answer: increased affinity for DR4

Question: For B3, which “affinity for DR4” value is on record?
Answer: increased affinity for DR4

Question: Which “affinity for DR4” value does the source give for B4 here?
Answer: increased affinity for DR4

Question: Which “affinity for DR4” value does the source give for B5 here?
Answer: increased affinity for DR4

Question: Which “affinity for DR4” value does the source give for B6 here?
Answer: increased affinity for DR4

Question: With B7 as the molecule, how does the “affinity for DR4” value read?
Answer: increased affinity for DR4

Question: Which “affinity for DR4” value does the source give for B8 here?
Answer: increased affinity for DR4

Question: With B9 as the molecule, how does the “affinity for DR4” value read?
Answer: DR4 variants

Question: With B10 as the molecule, how does the “affinity for DR4” value read?
Answer: increased affinity for DR4

Question: For B11, which “affinity for DR4” value is on record?
Answer: increased affinity for DR4

Question: For B12, which “affinity for DR4” value is on record?
Answer: increased affinity for DR4

Question: With B13 as the molecule, how does the “affinity for DR4” value read?
Answer: increased affinity for DR4

Question: For B14, which “affinity for DR4” value is on record?
Answer: increased affinity for DR4

Question: With B15 as the molecule, how does the “affinity for DR4” value read?
Answer: increased affinity for DR4

Question: Which “affinity for DR4” value does the source give for B16 here?
Answer: increased affinity for DR4

Question: For B17, which “affinity for DR4” value is on record?
Answer: increased affinity for DR4

Question: For B18, which “affinity for DR4” value is on record?
Answer: increased affinity for DR4

Question: Which “affinity for DR4” value does the source give for B19 here?
Answer: increased affinity for DR4

Question: With B20 as the molecule, how does the “affinity for DR4” value read?
Answer: increased affinity for DR4

Question: Which “affinity for DR4” value does the source give for B21 here?
Answer: increased affinity for DR4

Question: For B22, which “affinity for DR4” value is on record?
Answer: increased affinity for DR4

Question: Which “affinity for DR4” value does the source give for B23 here?
Answer: increased affinity for DR4

Question: For B24, which “affinity for DR4” value is on record?
Answer: increased affinity for DR4

Question: Which “affinity for DR4” value does the source give for B25 here?
Answer: increased affinity for DR4

Question: With B26 as the molecule, how does the “affinity for DR4” value read?
Answer: increased affinity for DR4

Question: With B27 as the molecule, how does the “affinity for DR4” value read?
Answer: increased affinity for DR4

Question: Which “affinity for DR4” value does the source give for B28 here?
Answer: increased affinity for DR4

Question: Which “affinity for DR4” value does the source give for B29 here?
Answer: increased affinity for DR4

Question: Which “affinity for DR4” value does the source give for B30 here?
Answer: increased affinity for DR4

Question: For B31, which “affinity for DR4” value is on record?
Answer: increased affinity for DR4

Molecular target: DR5 (Homo sapiens, UniProt O14763)
Conditions: in words; known from WO 2009/077857, Van der Sloot 2006, MacFarlane 2005, WO 01/00832; cited from earlier work

Question: Which “affinity for DR5” value does the source give for B32 here?
Answer: increased affinity for DR5

Question: For B33, which “affinity for DR5” value is on record?
Answer: increased affinity for DR5

Question: For B34, which “affinity for DR5” value is on record?
Answer: increased affinity for DR5

Question: For B35, which “affinity for DR5” value is on record?
Answer: increased affinity for DR5

Question: For B36, which “affinity for DR5” value is on record?
Answer: increased affinity for DR5

Question: Which “affinity for DR5” value does the source give for B37 here?
Answer: increased affinity for DR5

Question: With B38 as the molecule, how does the “affinity for DR5” value read?
Answer: increased affinity for DR5
